Columns and labels:
Experiment in all cases: EMSA
MutSbeta (MSH2-MSH3) = MutSbeta (MSH2-MSH3) (Homo sapiens, UniProt P43246;P20585 1-934;1-1137)
MutLbeta (MLH1-PMS1) = MutLbeta (MLH1-PMS1) (Homo sapiens, UniProt P40692;P54277 1-756;1-932)
MutLgamma (MLH1-MLH3) = MutLgamma (MLH1-MLH3) (Homo sapiens, UniProt P40692;Q9UHC1 1-756;1-1453)

Measured: binding result

Sequence of MutLbeta (MLH1-PMS1) (P40692 whole entry, chain 1 of 2): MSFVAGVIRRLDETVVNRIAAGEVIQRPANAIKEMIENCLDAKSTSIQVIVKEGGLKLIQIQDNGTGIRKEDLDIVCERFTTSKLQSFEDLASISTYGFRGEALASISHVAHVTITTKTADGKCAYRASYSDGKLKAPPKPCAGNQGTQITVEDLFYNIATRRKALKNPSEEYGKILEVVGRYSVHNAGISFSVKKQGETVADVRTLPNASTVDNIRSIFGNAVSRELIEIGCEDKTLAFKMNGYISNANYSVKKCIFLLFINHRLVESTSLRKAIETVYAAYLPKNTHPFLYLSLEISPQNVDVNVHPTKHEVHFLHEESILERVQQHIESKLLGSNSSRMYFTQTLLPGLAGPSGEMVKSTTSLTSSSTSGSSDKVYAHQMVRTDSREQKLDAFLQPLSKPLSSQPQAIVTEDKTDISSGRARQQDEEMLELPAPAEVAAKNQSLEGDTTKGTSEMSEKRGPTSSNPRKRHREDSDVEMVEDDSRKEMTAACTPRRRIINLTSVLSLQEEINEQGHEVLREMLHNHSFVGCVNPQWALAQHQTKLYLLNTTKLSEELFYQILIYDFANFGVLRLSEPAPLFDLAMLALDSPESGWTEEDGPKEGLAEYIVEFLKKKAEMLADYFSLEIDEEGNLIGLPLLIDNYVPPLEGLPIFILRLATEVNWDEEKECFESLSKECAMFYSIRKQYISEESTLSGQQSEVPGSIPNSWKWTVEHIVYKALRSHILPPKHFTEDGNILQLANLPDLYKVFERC
Sequence of MutLbeta (MLH1-PMS1) (P54277 whole entry, chain 2 of 2): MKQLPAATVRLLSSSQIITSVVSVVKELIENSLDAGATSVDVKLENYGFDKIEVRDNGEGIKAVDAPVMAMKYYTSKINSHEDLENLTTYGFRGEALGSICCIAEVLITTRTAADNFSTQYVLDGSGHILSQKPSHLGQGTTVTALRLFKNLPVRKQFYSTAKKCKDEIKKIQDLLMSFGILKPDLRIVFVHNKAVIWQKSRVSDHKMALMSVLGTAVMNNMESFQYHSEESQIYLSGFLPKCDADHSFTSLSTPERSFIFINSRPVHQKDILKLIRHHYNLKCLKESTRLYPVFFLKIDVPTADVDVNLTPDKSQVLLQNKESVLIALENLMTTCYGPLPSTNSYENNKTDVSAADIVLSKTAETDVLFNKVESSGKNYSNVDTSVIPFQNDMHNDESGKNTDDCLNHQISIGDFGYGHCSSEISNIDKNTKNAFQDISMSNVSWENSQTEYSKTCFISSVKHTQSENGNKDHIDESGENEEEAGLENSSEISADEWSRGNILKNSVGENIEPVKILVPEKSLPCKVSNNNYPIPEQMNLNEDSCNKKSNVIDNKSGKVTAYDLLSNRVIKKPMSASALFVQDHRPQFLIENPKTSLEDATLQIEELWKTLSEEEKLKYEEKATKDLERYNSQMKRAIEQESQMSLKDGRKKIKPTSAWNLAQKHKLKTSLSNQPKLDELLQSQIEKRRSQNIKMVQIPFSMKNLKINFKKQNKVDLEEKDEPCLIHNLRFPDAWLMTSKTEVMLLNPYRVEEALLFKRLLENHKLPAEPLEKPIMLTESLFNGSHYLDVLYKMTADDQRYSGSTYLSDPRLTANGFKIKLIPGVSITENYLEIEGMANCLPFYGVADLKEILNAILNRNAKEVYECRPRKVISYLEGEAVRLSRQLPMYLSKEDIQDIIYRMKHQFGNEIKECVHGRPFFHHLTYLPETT
Sequence of MutLgamma (MLH1-MLH3) (P40692 whole entry, chain 1 of 2): as the sequence (P40692 whole entry, chain 1 of 2) above
Sequence of MutLgamma (MLH1-MLH3) (Q9UHC1 whole entry, chain 2 of 2): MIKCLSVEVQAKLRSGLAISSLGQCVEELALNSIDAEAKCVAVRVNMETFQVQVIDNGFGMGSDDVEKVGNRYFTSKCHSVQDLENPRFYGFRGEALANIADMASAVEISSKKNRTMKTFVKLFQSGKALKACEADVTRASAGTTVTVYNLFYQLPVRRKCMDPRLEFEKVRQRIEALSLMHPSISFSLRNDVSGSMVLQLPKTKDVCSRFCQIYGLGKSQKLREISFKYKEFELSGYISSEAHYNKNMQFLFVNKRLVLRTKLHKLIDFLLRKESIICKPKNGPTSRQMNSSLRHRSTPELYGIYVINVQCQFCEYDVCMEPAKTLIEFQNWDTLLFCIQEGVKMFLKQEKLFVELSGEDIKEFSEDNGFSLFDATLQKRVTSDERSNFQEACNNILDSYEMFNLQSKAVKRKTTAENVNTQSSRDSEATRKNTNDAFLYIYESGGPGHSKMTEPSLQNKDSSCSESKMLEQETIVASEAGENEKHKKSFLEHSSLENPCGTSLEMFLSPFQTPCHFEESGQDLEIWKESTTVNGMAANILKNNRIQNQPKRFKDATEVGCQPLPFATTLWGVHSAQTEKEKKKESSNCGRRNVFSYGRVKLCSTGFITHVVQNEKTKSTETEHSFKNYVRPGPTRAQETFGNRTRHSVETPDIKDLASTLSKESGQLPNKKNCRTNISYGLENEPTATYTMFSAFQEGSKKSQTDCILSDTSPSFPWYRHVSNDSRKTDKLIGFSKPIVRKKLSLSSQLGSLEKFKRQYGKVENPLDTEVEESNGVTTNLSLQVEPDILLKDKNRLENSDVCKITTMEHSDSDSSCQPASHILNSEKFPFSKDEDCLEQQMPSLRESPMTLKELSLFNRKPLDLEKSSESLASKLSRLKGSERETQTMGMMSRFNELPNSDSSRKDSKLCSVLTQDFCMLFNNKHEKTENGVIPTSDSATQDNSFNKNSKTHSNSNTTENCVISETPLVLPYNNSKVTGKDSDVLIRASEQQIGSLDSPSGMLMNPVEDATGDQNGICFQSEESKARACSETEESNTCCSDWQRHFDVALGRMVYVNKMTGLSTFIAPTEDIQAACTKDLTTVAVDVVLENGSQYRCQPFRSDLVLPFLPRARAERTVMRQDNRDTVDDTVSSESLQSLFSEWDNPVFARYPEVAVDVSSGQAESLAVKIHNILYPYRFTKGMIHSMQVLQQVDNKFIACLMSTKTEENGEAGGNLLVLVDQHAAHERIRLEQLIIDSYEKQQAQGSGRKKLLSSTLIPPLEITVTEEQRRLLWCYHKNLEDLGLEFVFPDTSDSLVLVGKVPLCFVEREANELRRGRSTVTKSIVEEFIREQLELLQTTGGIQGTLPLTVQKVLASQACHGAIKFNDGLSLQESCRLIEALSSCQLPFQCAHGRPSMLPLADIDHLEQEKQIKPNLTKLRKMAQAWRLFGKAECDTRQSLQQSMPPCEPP

B1: Holliday junction (PC1253/PC1254/PC1255/PC1256) (structured_DNA)
DNA 1: TGGGTCAACGTGGGCAAAGATGTCCTAGCAATGTAATCGTCTATGACGTT
DNA 2: TGCCGAATTCTACCAGTGCCAGTGATGGACATCTTTGCCCACGTTGACCC
DNA 3: GTCGGATCCTCTAGACAGCTCCATGATCACTGGCACTGGTAGAATTCGGC
DNA 4: CAACGTCACAGACGATTACATTGCTACATGGAGCTGTCTAGAGGATCCGA
binds: all assays above
